Test results: patent US20040059519A1
“And” between values parts separate entries of the source, which are not always exact repeats. Equal entries are not always repeated.

Key:
Alpha fetoprotein [1] = biological target: Alpha fetoprotein (UniProt P02771); assay: multiplex sandwich, S10473 capture beads; AFP 4 ng/mL, washed
Alpha fetoprotein [2] = biological target: Alpha fetoprotein (UniProt P02771); assay: multiplex sandwich, S10473 capture beads; AFP 4 ng/mL, no wash
Alpha fetoprotein [3] = biological target: Alpha fetoprotein (UniProt P02771); assay: multiplex sandwich, S10473 capture beads; AFP 500 ng/mL, no wash
[4] = biological target: Human chorionic gonadotropin (human) (UniProt P01215); assay: MAB602 capture beads, flow cytometry; hCG 1.0 ng/mL, anti-AFP probe
UniProt P01215, sequence (P01215 25-116, chain 1 of 2, other chains not shown): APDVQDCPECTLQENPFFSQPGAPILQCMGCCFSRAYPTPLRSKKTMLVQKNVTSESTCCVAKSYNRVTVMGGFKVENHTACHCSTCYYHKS

[5] = biological target: Human chorionic gonadotropin (human) (UniProt P01215); assay: MAB602 capture beads, flow cytometry; hCG 10.0 ng/mL, anti-AFP probe
[6] = biological target: Human chorionic gonadotropin (human) (UniProt P01215); assay: anti-AFP capture beads, flow cytometry; hCG 1.0 ng/mL, anti-AFP probe
Alpha fetoprotein [7] = biological target: Alpha fetoprotein (UniProt P02771); assay: multiplex no-wash sandwich, S10473 beads; Negative serum, AFP 2 U/mL
[8] = biological target: Neutravidin (deglycosylated avidin) (UniProt P02701); assay: multiplex, Neutravidin bead 70/50 without peptide, flow cytometry
UniProt P02701, sequence (P02701 25-152 limits assumed): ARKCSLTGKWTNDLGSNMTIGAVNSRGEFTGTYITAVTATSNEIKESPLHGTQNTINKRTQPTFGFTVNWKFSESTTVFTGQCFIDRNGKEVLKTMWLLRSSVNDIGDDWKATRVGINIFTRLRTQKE

[9] = biological target: Neutravidin (deglycosylated avidin) (UniProt P02701); assay: multiplex, Neutravidin bead 70/60 without peptide, flow cytometry
[10] = biological target: Neutravidin (deglycosylated avidin) (UniProt P02701); assay: single-analyte, Neutravidin bead 70/60 without peptide, flow cytometry
[11] = biological target: Neutravidin (deglycosylated avidin) (UniProt P02701); assay: single-analyte, Neutravidin bead 70/70 without peptide, flow cytometry
[12] = biological target: Human chorionic gonadotropin (human) (UniProt P01215); assay: multiplex sandwich, MAB602 capture beads; hCG 2 ng/mL, no wash
[13] = biological target: Human chorionic gonadotropin (human) (UniProt P01215); assay: bead sandwich, flow cytometry; capture A3 beads, hCG 20.0 ug/mL
[14] = biological target: Human chorionic gonadotropin (human) (UniProt P01215); assay: multiplex sandwich, MAB602 capture beads; hCG 2000 ng/mL, no wash
[15] = biological target: Human chorionic gonadotropin (human) (UniProt P01215); assay: bead sandwich, flow cytometry; capture A3 beads, no hCG (background)
[16] = biological target: Human chorionic gonadotropin (human) (UniProt P01215); assay: MAB602 capture beads, flow cytometry; hCG 1000.0 ng/mL, anti-hCG probe
[17] = biological target: Human chorionic gonadotropin (human) (UniProt P01215); assay: multiplex no-wash sandwich, MAB602 beads; serum Level 3, hCG 436 mU/mL

UniProt P02771, sequence (P02771 19-609 limits assumed): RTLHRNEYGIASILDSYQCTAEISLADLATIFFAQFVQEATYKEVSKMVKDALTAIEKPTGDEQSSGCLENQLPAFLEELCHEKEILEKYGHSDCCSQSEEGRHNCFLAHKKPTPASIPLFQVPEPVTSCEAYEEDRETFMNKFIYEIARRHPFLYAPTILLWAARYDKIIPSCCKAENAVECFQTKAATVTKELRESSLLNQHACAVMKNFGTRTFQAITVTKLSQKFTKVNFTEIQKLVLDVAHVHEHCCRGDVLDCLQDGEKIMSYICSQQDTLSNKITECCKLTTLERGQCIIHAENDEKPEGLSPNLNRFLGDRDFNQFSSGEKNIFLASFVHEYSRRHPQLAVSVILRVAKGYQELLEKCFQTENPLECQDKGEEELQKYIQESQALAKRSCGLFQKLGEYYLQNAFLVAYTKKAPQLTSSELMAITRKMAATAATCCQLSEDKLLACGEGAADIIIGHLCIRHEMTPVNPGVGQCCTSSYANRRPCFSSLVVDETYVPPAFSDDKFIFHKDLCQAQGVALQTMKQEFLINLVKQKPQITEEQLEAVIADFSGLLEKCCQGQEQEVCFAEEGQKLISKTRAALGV

M20077 affinity purified polyclonal anti-AFP antibody, Bodipy FL-CASE labeled
MIF of Fm (Alpha fetoprotein [1]): 108 | MIF of Fm (Alpha fetoprotein [2]): 94 | MIF of Fm (Alpha fetoprotein [3]): 643 | MIF of Fm [4]: 48 | MIF of Fm [5]: 47 | MIF of Fm [6]: 44 | MIF AVG (Alpha fetoprotein [7]): 12.3 | MIF of FL1 (Alpha fetoprotein [7]): 11 and 13

MAB 384, Bodipy FL-X labeled (antibody)
MIF of Fm [8]: 28 | MIF of Fm [9]: 23 | MIF of Fm [10]: 70 | MIF of Fm [11]: 66

AB633 affinity purified polyclonal anti-hCG antibody, Bodipy FL-CASE labeled
MIF of Fm [12]: 650 | MIF of Fm [13]: 3150 | MIF of Fm [14]: 491 | MIF of Fm [15]: 2980 | MIF of Fm [16]: 792 | MIF AVG [17]: 624 | MIF of FL1 [17]: 631 and 601 and 640
